According to patent publication US20180362587A1, “Compositions and Methods for Inhibiting CBP80 Binding to PGC1 Family of Co-Activators” (University of Rochester, priority 2015, published 2018):
Blank lines part the entries; values can stand above or below the binder they belong to. * marks the point of attachment. Biotin = O=C1N[C@H]2[C@H](CS[C@H]2CCCCC(=O)*)N1; Ahx = NCCCCCC(=O)O

How the values were obtained:
CBP80/CBP20 complex [1] = target: T1, CBP80/CBP20 complex (human, UniProt Q09161 20-790; P52298 1-156, limits assumed); assay: FP competition assay; 1 µM FITC-Ahx-…-NH2 as competitor, 30 µM CBP80/CBP20 complex
T1 construct: Used in the fluorescence polarization assays; In the crystal it also carried the cap analogue (m7GpppG / m7GpppA); also called CBC complex; CBC
T1 sequence (looked up) 1: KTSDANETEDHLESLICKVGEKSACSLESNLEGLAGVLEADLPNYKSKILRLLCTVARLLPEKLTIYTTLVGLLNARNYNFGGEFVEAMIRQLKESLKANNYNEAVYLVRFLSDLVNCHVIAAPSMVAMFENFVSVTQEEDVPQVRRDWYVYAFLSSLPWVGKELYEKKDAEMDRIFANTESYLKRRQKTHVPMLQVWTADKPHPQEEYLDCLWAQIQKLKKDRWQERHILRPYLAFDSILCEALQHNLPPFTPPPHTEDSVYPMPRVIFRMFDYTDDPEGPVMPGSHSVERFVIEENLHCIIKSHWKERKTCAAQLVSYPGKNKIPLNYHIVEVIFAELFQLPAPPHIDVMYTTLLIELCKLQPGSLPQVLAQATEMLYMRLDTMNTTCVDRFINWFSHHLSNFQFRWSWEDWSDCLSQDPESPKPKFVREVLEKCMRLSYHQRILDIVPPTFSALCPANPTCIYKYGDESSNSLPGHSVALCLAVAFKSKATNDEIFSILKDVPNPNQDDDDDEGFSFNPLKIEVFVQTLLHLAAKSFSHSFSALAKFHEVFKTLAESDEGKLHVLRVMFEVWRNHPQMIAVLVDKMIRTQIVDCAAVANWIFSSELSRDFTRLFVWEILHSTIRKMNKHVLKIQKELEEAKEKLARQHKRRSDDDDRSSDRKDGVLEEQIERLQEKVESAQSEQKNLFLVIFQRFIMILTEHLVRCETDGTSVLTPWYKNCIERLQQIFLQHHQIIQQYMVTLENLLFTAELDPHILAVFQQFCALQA
T1 sequence (looked up) 2: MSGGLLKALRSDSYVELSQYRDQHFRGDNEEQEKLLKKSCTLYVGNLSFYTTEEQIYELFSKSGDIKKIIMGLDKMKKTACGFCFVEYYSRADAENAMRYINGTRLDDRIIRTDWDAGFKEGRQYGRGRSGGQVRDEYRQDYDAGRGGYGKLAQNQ
Procedure: (§1) The relative activity of the PGC1β mimics toward disrupting the interaction between CBC and the fluorescein-conjugated PGC1β-derived peptide was measured in a competition assay. Briefly, a fixed amount of CBC and fluorescein-conjugated PGC1β-derived peptide are incubated with increasing amounts of the PGC1β mimic (FIG. 11A). From the resulting dose-dependent inhibition curves, the in vitro CBC inhibitory activity of the PGC1β mimic compound is measured based on their respective half-maximal inhibitory concentration (IC₅₀) (FIG. 5B). Using this assay, various PGC1β mimics were evaluated for their relative ability to target CBC and disrupt its binding interaction with PGC1β. […] Short peptides derived from the C-terminal domain of PGC1β and PRC proteins, two other members of the PGC1 family of transcriptional coactivators, were also to bind CBC and inhibits its interaction with the fluorescein-labeled PGC1β peptide with IC₅₀ values in the low micromolar range.
^aAc = acetyl; Biot = biotin; Ahx = 6-aminohexanoic acid; Aib = 2-aminoisobutyric acid; CrtDab = N^γ-crotonyl-2,4-diaminobutyric acid. C-terminal ‘-NH₂’ refers to amidated C-terminal end of the peptide. ^bIC₅₀ was determined using fluorescence polarization based competition assay in the presence of 1 μM of FITC-labeled PGC1β (FITC-Ahx-[…]-NH₂, where FITC is fluorescein-isothiocyanate) and 30 μM of the CBP80/CBP20 complex in HEPES buffer (10 mM HEPES, 50 mM NaCl, 5 mM BME, pH 7.5).
(§2) IC₅₀ values were determined by adapting the fluorescence polarization assay described above to a competition format. 1 μM of the FITC-labeled PGC1β peptide (FITC-Ahx-[…]-NH₂) was incubated with 30 μM of the CBP80-CBP20 complex in HEPES Buffer (10 mM HEPES [pH 7.5], 50 mM NaCl and 5 mM 2-mercaptoethanol).

CBP80/CBP20 complex [2] = target: T1, CBP80/CBP20 complex; assay: FP competition assay; FITC-labeled PGC1β peptide as competitor
Procedure: as §1
IC₅₀ values were determined by adapting the fluorescence polarization assay described above to a competition format. […] Half-maximal inhibitory concentration (IC₅₀) values were calculated from the resulting inhibition curves as given by dose-dependent decrease in the fluorescence polarization signal. […]

CBP80/CBP20 complex [3] = target: T1, CBP80/CBP20 complex; assay: FP competition assay, alanine scan
Procedure: To examine the tolerance of this compound to sequence modification, an alanine-scanning library was synthesized. This library of PGC1β mimics consisted of 11 linear peptides (PGC1β-2A through PGC1β-12A; Table 3), in which each amino acid residue of the parent PGC1β-wt peptide was replaced with alanine (or with glycine, when the parent residue is alanine). The peptides were tested for their ability to inhibit the CBC-PGC1β interaction using the aforementioned fluorescence polarization-based competition assay. […] These compounds include PGC1β mimics containing non-canonical amino acids such as 2-aminoisobutyric acid (Aib) and […]-crotonyl-2,4-diaminobutyric acid (CrtDab). Aib is an α,α-disubstituted amino acid which is well known for its ability to stabilize α-helical peptide structures as well as increase peptide stability against proteolysis.
as §2

IC50 (CBP80/CBP20 complex [1]): 35 µM
IC50 (CBP80/CBP20 complex [2]): 31 µM
B1: Biot-PGC1β (Biot-Ahx-SGG-AMDFDSLLKEAQQSLH-NH2) (peptide)
peptide: {Biotin-Ahx}-SGGAMDFDSLLKEAQQSLH-NH2
SMILES: CSCC[C@H](NC(=O)[C@H](C)NC(=O)CNC(=O)CNC(=O)[C@H](CO)NC(=O)CCCCCNC(=O)CCCC[C@@H]1SC[C@@H]2NC(=O)N[C@@H]21)C(=O)N[C@@H](CC(=O)O)C(=O)N[C@@H](Cc1ccccc1)C(=O)N[C@@H](CC(=O)O)C(=O)N[C@@H](CO)C(=O)N[C@@H](CC(C)C)C(=O)N[C@@H](CC(C)C)C(=O)N[C@@H](CCCCN)C(=O)N[C@@H](CCC(=O)O)C(=O)N[C@@H](C)C(=O)N[C@@H](CCC(N)=O)C(=O)N[C@@H](CCC(N)=O)C(=O)N[C@@H](CO)C(=O)N[C@@H](CC(C)C)C(=O)N[C@@H](Cc1c[nH]cn1)C(N)=O
notes: also called Biot-PGC1β peptide; biotinylated version of the PGC1β peptide

fold improvement of inhibitory activity against PGC1β-wt (CBP80/CBP20 complex [3]): ≤ 2 fold
IC50 (CBP80/CBP20 complex [1]): 33 µM
Binder: Ac-MDFDSLLKAAQQS-NH2 [PGC1β-9A (Ac-MDFDSLLKAAQQS-NH2)]
